Literature values in paper PMC3153048.

Legend:
[1] = molecular target: ExsE (Pseudomonas aeruginosa) (UniProt Q9I322)
[2] = molecular target: ExsD (Pseudomonas aeruginosa) (UniProt Q9I321)
Chain of UniProt Q9I321 (Q9I321 whole entry): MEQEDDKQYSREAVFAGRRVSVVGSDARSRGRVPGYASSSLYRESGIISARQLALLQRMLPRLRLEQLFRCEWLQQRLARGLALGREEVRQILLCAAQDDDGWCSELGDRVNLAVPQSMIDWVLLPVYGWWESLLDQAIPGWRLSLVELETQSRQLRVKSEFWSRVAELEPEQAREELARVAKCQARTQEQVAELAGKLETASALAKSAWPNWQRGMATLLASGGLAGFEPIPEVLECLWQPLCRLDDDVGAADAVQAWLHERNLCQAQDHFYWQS

Chain of UniProt Q9I322 (Q9I322 whole entry): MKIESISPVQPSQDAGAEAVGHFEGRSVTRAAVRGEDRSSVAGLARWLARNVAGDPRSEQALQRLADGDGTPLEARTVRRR

In the case of ExsC (from UniProt P26995), the Kd [1] is listed as 1 nM and the Kd [2] is listed as 18 nM.
